Results: patent US20220064329A1 (Novo Nordisk, published 2022)

Assays:
[1] = target: T1, recombinant human activated Factor VII (FVIIa) (human, UniProt P08709 61-212; P08709 213-466, ten glutamate residues of the Gla domain may be gamma-carboxylated); test: cell-based or functional assay
T1 sequence 1: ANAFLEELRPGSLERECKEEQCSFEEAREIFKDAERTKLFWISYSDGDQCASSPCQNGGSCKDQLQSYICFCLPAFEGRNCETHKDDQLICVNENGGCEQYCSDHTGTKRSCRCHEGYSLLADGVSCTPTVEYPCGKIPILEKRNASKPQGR
T1 sequence 2: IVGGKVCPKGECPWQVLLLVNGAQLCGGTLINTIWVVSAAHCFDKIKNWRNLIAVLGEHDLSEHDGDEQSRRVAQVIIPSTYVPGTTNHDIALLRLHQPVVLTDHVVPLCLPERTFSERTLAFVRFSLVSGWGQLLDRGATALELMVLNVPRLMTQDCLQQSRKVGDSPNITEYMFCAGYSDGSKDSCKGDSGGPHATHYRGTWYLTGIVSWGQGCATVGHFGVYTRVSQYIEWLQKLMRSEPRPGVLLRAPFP

[2] = target: T1, recombinant human activated Factor VII …; test: SPR (Biacore)

B1: mAb0140(OA) (antibody, human IgG4 S228P, kappa)
heavy: not shown
light: EIVLTQSPATLSLSPGERATLSCRASQGISDYLHWYQQKPGEAPRLLIKYTSQPATGIPARFSGSGSGTDFTLTISSLEPEDVGVYYCQNGHSFPLTFGAGTKLELKRTVAAPSVFIFPPSDEQLKSGTASVVCLLNNFYPREAKVQWKVDNALQSGNSQESVTEQDSKDSTYSLSSTLTLSKADYEKHKVYACEVTHQGLSSPVTKSFNRGEC
chain: VESKYGPPCPPCPAPEFLGGPSVFLFPPKPKDTLMISRTPEVTCVVVDVSQEDPEVQFNWYVDGVEVHNAKTKPREEQFNSTYRVVSVLTVLHQDWLNGKEYKCKVSNKGLPSSIEKTISKAKGQPREPQVYTLPPSQEEMTKNQVSLTCLVKGFYPSDIAVEWESNGQPENNYKTTPPVLDSDGSFLLYSKLTVDKSRWQEGNVFSCSVMHEALHNHYTQKSLSLSLGK
notes: one-armed (OA) antibody, constant domain type E
**Q.** With B1 as the binder, how does the “AT inhibition (kinh %)” value [1] read?
**A.** The value was 106%.

**Q.** And the “TGT activity (%% FVIIa)” value [1]?
**A.** Its value is 100%.

**Q.** What about the Kd [2] of the same binder?
**A.** Its Kd is 0.083 nM.

B2: mAb0709(OA) (antibody, human IgG4 S228P, kappa)
heavy: QVQLQESGPGLVKPSQTLSLTCTVSGYSISSDSAWSWIRQPPGKGLEWIGYIQYSGSTNYNPSLKSRVTISRDTSKNQFSLKLSSVTAADTAVYYCARSVNYYGNSFAVGPWGQGTLVTVSSASTKGPSVFPLAPCSRSTSESTAALGCLVKDYFPEPVTVSWNSGALTSGVHTFPAVLQSSGLYSLSSVVTVPSSSLGTKTYTCNVDHKPSNTKVDKRVESKYGPPCPPCPAPEFLGGPSVFLFPPKPKDTLMISRTPEVTCVVVDVSQEDPEVQFNWYVDGVEVHNAKTKPREEQFNSTYRVVSVLTVLHQDWLNGKEYKCKVSNKGLPSSIEKTISKAKGQPREPQVYTLPPSQEEMTKNQVSLSCAVKGFYPSDIAVEWESNGQPENNYKTTPPVLDSDGSFFLVSRLTVDKSRWQEGNVFSCSVMHEALHNHYTQKSLSLSLGK
light: EIVLTQSPATLSLSPGERATLSCRASQGISDYLHWYQQKPGEAPRLLIKYTSQPATGIPARFSGSGSGTDFTLTISSLEPEDFAVYYCQNGHSFPLTFGQGTKLEIKRTVAAPSVFIFPPSDEQLKSGTASVVCLLNNFYPREAKVQWKVDNALQSGNSQESVTEQDSKDSTYSLSSTLTLSKADYEKHKVYACEVTHQGLSSPVTKSFNRGEC
chain: not shown
notes: one-armed (OA) antibody, constant domain type F (knob-in-hole)
**Q.** What does the source list for B2?
**A.** AT inhibition (kinh %) [1]: 137%; TGT activity (%% FVIIa) [1]: 103%; Kd [2]: 0.104 nM

B3: mAb0141(OA) (antibody, human IgG4 S228P, kappa)
heavy: not shown
light: EIVLTQSPATLSLSPGERATLSCRASQGISDYLHWYQQKPGEAPRLLIKYTSQPATGIPARFSGSGSGTDFTLTISSLEPEDVGVYYCQNGHSFPLTFGAGTKLELKRTVAAPSVFIFPPSDEQLKSGTASVVCLLNNFYPREAKVQWKVDNALQSGNSQESVTEQDSKDSTYSLSSTLTLSKADYEKHKVYACEVTHQGLSSPVTKSFNRGEC
chain: VESKYGPPCPPCPAPEFLGGPSVFLFPPKPKDTLMISRTPEVTCVVVDVSQEDPEVQFNWYVDGVEVHNAKTKPREEQFNSTYRVVSVLTVLHQDWLNGKEYKCKVSNKGLPSSIEKTISKAKGQPREPQVYTLPPSQEEMTKNQVSLTCLVKGFYPSDIAVEWESNGQPENNYKTTPPVLDSDGSFLLYSKLTVDKSRWQEGNVFSCSVMHEALHNHYTQKSLSLSLGK
notes: as for B1
**Q.** For B3, which “AT inhibition (kinh %)” value [1] is on record?
**A.** The value was 109%.

**Q.** And the “TGT activity (%% FVIIa)” value [1]?
**A.** Its value is 103%.

**Q.** And the Kd [2]?
**A.** Its Kd is 0.078 nM.

B4: mAb0143(OA) (antibody, human IgG4 S228P, kappa)
heavy: not shown
light: EIVLTQSPATLSLSPGERATLSCRASQGISDYLHWYQQKPGEAPRLLIKYTSQPATGIPARFSGSGSGTDFTLTISSLEPEDFGVYYCQNGHSFPLTFGAGTKLELKRTVAAPSVFIFPPSDEQLKSGTASVVCLLNNFYPREAKVQWKVDNALQSGNSQESVTEQDSKDSTYSLSSTLTLSKADYEKHKVYACEVTHQGLSSPVTKSFNRGEC
chain: VESKYGPPCPPCPAPEFLGGPSVFLFPPKPKDTLMISRTPEVTCVVVDVSQEDPEVQFNWYVDGVEVHNAKTKPREEQFNSTYRVVSVLTVLHQDWLNGKEYKCKVSNKGLPSSIEKTISKAKGQPREPQVYTLPPSQEEMTKNQVSLTCLVKGFYPSDIAVEWESNGQPENNYKTTPPVLDSDGSFLLYSKLTVDKSRWQEGNVFSCSVMHEALHNHYTQKSLSLSLGK
notes: as for B1
**Q.** Which results are given for B4?
**A.** AT inhibition (kinh %) [1]: 109%; TGT activity (%% FVIIa) [1]: 107%; Kd [2]: 0.079 nM

B5: mAb0705(OA) (antibody, human IgG4 S228P, kappa)
heavy: QVQLQESGPGLVKPSQTLSLTCTVSGYSISSDSAWSWIRQPPGKGLEWIGYIQYSGSTNYNPSLKSRVTISRDTSKNQFSLKLSSVTAADTAVYYCARSVNYYGNSFAVGYWGQGTLVTVSSASTKGPSVFPLAPCSRSTSESTAALGCLVKDYFPEPVTVSWNSGALTSGVHTFPAVLQSSGLYSLSSVVTVPSSSLGTKTYTCNVDHKPSNTKVDKRVESKYGPPCPPCPAPEFLGGPSVFLFPPKPKDTLMISRTPEVTCVVVDVSQEDPEVQFNWYVDGVEVHNAKTKPREEQFNSTYRVVSVLTVLHQDWLNGKEYKCKVSNKGLPSSIEKTISKAKGQPREPQVYTLPPSQEEMTKNQVSLSCAVKGFYPSDIAVEWESNGQPENNYKTTPPVLDSDGSFFLVSRLTVDKSRWQEGNVFSCSVMHEALHNHYTQKSLSLSLGK
light: EIVLTQSPATLSLSPGERATLSCRASQGISDYLHWYQQKPGEAPRLLIKYTSQPATGIPARFSGSGSGTDFTLTISSLEPEDFAVYYCQNGHSFPLTFGQGTKLEIKRTVAAPSVFIFPPSDEQLKSGTASVVCLLNNFYPREAKVQWKVDNALQSGNSQESVTEQDSKDSTYSLSSTLTLSKADYEKHKVYACEVTHQGLSSPVTKSFNRGEC
chain: not shown
notes: one-armed (OA) antibody, constant domain type F (knob-in-hole); also called monovalent humanized 11F2
**Q.** Which results are given for B5?
**A.** AT inhibition (kinh %) [1]: 129%; TGT activity (%% FVIIa) [1]: 100%; Kd [2]: 0.0505 nM

B6: mAb0706(OA) (antibody, human IgG4 S228P, kappa)
heavy: QVQLQESGPGLVEPSQTLSLTCTVSGYSISSDSAWSWIRQPPGKGLEWIGYIQYSGSTNYNPSLKSRVTISRDTSKNQFSLKLSSVTAADTAVYYCARSVNYYGNSFAVGYWGQGTLVTVSSASTKGPSVFPLAPCSRSTSESTAALGCLVKDYFPEPVTVSWNSGALTSGVHTFPAVLQSSGLYSLSSVVTVPSSSLGTKTYTCNVDHKPSNTKVDKRVESKYGPPCPPCPAPEFLGGPSVFLFPPKPKDTLMISRTPEVTCVVVDVSQEDPEVQFNWYVDGVEVHNAKTKPREEQFNSTYRVVSVLTVLHQDWLNGKEYKCKVSNKGLPSSIEKTISKAKGQPREPQVYTLPPSQEEMTKNQVSLSCAVKGFYPSDIAVEWESNGQPENNYKTTPPVLDSDGSFFLVSRLTVDKSRWQEGNVFSCSVMHEALHNHYTQKSLSLSLGK
light: EIVLTQSPATLSLSPGERATLSCRASQGISDYLHWYQQKPGQAPRLLIKYTSQPATGIPARFSGSGSGTDFTLTISSLEPEDFAVYYCQNGHSFPLTFGQGTKLEIKRTVAAPSVFIFPPSDEQLKSGTASVVCLLNNFYPREAKVQWKVDNALQSGNSQESVTEQDSKDSTYSLSSTLTLSKADYEKHKVYACEVTHQGLSSPVTKSFNRGEC
chain: not shown
notes: as for B2
**Q.** How did the “AT inhibition (kinh %)” value [1] turn out when B6 was run?
**A.** The value was 132%.

**Q.** And the “TGT activity (%% FVIIa)” value [1]?
**A.** Its value is 101%.

**Q.** And the Kd [2]?
**A.** The Kd was 0.0542 nM.

B7: mAb0142(OA) (antibody, human IgG4 S228P, kappa)
heavy: not shown
light: EIVLTQSPATLSLSPGERATLSCRASQGISSYLHWYQQKPGEAPRLLIKYTSQPATGIPARFSGSGSGTDFTLTISSLEPEDVGVYYCQNGHSFPLTFGAGTKLELKRTVAAPSVFIFPPSDEQLKSGTASVVCLLNNFYPREAKVQWKVDNALQSGNSQESVTEQDSKDSTYSLSSTLTLSKADYEKHKVYACEVTHQGLSSPVTKSFNRGEC
chain: VESKYGPPCPPCPAPEFLGGPSVFLFPPKPKDTLMISRTPEVTCVVVDVSQEDPEVQFNWYVDGVEVHNAKTKPREEQFNSTYRVVSVLTVLHQDWLNGKEYKCKVSNKGLPSSIEKTISKAKGQPREPQVYTLPPSQEEMTKNQVSLTCLVKGFYPSDIAVEWESNGQPENNYKTTPPVLDSDGSFLLYSKLTVDKSRWQEGNVFSCSVMHEALHNHYTQKSLSLSLGK
notes: as for B1
**Q.** For B7, which “AT inhibition (kinh %)” value [1] is on record?
**A.** Its value is 114%.

**Q.** And the “TGT activity (%% FVIIa)” value [1]?
**A.** Its value is 106%.

**Q.** And the Kd [2]?
**A.** The Kd was 1 nM.
